# Test results: article PMC9482650, “Quantitative fragmentomics allow affinity mapping of interactomes” (Nature Communications, 2022)
# T1: NHERF3_3, Q5T2W1
# T1 sequence (Q5T2W1 238-333, limits assumed, looked up): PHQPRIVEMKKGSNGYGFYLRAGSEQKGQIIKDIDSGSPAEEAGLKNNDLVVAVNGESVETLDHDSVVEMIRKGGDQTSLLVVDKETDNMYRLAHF
# T2: DFNB31_1, Q9P202
# T2 sequence (Q9P202 135-233, limits assumed, looked up): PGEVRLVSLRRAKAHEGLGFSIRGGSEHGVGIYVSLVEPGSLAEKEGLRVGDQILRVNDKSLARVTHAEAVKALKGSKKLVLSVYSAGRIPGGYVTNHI
# T3: MPDZ_5, O75970
# T3 sequence (O75970 695-796, limits assumed, looked up): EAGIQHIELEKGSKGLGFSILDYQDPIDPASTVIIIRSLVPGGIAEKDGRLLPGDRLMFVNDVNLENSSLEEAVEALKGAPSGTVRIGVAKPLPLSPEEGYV
# T4: DLG3_2, Q92796
# T4 sequence (Q92796 221-321, limits assumed, looked up): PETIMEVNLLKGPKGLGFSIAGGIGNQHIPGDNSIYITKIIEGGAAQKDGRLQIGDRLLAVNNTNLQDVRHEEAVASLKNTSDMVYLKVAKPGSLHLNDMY
# T5: PTPN13_1, Q12923
# T5 sequence (Q12923 1088-1188, limits assumed, looked up): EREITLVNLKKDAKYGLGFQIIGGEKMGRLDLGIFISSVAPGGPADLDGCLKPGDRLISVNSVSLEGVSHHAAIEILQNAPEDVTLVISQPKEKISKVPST
# T6: RHPN1, Q8TCX5
# T6 sequence (Q8TCX5 508-602, limits assumed, looked up): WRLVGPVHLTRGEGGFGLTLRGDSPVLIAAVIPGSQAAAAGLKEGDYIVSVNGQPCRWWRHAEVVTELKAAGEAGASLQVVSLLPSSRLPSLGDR
# T7: RADIL, Q96JH8
# T7 sequence (Q96JH8 971-1071, limits assumed, looked up): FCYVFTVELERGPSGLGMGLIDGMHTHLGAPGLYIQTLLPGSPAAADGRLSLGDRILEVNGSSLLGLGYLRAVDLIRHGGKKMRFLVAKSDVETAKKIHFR
# T8: SNTG1, Q9NSN8
# T8 sequence (Q9NSN8 52-150, limits assumed, looked up): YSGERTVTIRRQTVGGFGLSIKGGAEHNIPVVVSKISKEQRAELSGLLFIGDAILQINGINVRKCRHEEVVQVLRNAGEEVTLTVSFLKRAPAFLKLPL
# T9: DLG3_1, Q92796
# T9 sequence (Q92796 125-227, limits assumed, looked up): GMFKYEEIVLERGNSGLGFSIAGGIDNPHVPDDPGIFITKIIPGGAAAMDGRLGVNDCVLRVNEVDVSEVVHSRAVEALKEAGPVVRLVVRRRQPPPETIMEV
# T10: LIN7A, O14910
# T10 sequence (O14910 103-200, limits assumed, looked up): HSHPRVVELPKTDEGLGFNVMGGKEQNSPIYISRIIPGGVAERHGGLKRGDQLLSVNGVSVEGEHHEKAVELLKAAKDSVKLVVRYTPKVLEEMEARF
# T11: SNTG2, Q9NY99
# T11 sequence (Q9NY99 68-166, limits assumed, looked up): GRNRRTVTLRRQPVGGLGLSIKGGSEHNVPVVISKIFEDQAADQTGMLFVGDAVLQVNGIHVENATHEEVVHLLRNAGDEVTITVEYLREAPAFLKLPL
# Tests used:
# Test in all cases: holdup assay
# Parameters in all cases: key: below the threshold = too weak to quantify, mostly under pKd 3.1 to 4
# [1] = target: DLG1_3, Q12959
# [2] = target: GORASP2, Q9H8Y8
# [3] = target: TJP1_3, Q07157
# [4] = target: MAGI1_2, Q96QZ7
# [5] = target: PTPN3, P26045
# [6] = target: FRMPD2_2, Q68DX3
# [7] = target: Inadl_10, Q8NI35
# [8] = target: T1, NHERF3_3, Q5T2W1
# [9] = target: NHERF4_1, Q86UT5-2
# [10] = target: T2, DFNB31_1, Q9P202
# [11] = target: Inadl_9, Q8NI35
# [12] = target: T3, MPDZ_5, O75970
# [13] = target: T4, DLG3_2, Q92796
# [14] = target: FRMPD2_3, Q68DX3
# [15] = target: MAGI2_4, Q86UL8
# [16] = target: T5, PTPN13_1, Q12923
# [17] = target: LIMK2, P53671
# [18] = target: T6, RHPN1, Q8TCX5
# [19] = target: SCRIB_2, Q14160
# [20] = target: T7, RADIL, Q96JH8
# [21] = target: Inadl_3, Q8NI35
# [22] = target: T8, SNTG1, Q9NSN8
# [23] = target: LNX1_2, Q8TBB1
# [24] = target: T9, DLG3_1, Q92796
# [25] = target: T10, LIN7A, O14910
# [26] = target: AHNAK1, Q09666
# [27] = target: T11, SNTG2, Q9NY99
# [28] = plain residues with an end cap or a label only (N-terminal biotin on a linker: ado-ado)
# [29] = modified: phospho on S at position -3 from the C-terminal residue
# [30] = modified: acetyl on K at position -1 from the C-terminal residue
# AHNAK1, Q09666, sequence (Q09666 4-100): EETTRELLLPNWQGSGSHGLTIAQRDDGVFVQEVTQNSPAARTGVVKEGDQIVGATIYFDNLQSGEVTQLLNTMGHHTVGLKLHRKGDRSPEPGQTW
# LNX1_2, Q8TBB1, sequence (Q8TBB1 371-470): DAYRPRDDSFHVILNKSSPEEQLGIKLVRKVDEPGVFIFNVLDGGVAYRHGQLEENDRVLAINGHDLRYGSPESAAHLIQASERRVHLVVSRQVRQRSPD
# NHERF4_1, Q86UT5-2, sequence (Q86UT5 other isoform, or with tags, fused parts or gaps): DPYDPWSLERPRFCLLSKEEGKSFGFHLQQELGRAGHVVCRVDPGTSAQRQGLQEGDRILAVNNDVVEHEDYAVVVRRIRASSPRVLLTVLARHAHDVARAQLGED
# MAGI1_2, Q96QZ7, sequence (Q96QZ7 456-580): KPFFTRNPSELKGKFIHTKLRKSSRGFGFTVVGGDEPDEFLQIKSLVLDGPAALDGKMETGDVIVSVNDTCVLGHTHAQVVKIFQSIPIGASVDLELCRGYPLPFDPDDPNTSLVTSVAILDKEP
# MAGI2_4, Q86UL8, sequence (Q86UL8 772-865): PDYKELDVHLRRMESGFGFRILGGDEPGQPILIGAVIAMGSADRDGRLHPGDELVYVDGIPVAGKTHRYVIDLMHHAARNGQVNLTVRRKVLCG
# Inadl_9, Q8NI35, sequence (Q8NI35 1530-1615): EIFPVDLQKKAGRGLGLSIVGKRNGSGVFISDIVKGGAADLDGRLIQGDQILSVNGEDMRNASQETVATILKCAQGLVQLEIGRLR
# Inadl_10, Q8NI35, sequence (Q8NI35 1673-1763): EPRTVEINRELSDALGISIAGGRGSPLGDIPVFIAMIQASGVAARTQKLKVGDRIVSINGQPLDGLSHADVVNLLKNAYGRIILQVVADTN
# DLG1_3, Q12959, sequence (Q12959 457-571): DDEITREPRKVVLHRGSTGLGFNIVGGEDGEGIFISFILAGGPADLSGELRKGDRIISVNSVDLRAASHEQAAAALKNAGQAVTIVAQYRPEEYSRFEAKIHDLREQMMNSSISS
# SCRIB_2, Q14160, sequence (Q14160 857-960): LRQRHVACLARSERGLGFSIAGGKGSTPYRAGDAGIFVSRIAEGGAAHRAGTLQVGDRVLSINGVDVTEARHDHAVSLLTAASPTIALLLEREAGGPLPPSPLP
# FRMPD2_3, Q68DX3, sequence (Q68DX3 1073-1166): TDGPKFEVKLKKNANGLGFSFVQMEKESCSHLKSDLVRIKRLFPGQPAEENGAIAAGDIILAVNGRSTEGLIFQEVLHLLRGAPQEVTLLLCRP
# PTPN3, P26045, sequence (P26045 505-587): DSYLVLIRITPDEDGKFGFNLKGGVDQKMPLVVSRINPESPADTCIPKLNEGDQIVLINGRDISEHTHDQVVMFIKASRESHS
# LIMK2, P53671, sequence (P53671 143-248): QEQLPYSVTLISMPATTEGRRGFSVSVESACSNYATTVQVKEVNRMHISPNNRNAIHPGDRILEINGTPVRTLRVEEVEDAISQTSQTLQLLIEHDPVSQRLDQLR
# FRMPD2_2, Q68DX3, sequence (Q68DX3 944-1038): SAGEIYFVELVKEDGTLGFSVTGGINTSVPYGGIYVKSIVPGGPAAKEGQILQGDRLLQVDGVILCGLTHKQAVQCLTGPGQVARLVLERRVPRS
# Inadl_3, Q8NI35, sequence (Q8NI35 359-469): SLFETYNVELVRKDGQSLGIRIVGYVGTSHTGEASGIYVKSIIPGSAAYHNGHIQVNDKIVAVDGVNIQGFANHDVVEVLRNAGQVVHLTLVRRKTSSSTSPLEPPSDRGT
# TJP1_3, Q07157, sequence (Q07157 416-512): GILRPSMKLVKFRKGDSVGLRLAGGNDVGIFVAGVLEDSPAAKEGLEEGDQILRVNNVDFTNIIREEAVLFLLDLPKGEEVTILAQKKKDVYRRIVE
binder,measurement,setting,value
"FEEEAEEEVA [TUBB4B, P68371]",pKd,[1]; [28],below the threshold
same,pKd,[2]; [28],below the threshold
same,pKd,[3]; [28],below the threshold
same,pKd,[4]; [28],below the threshold
same,pKd,[5]; [28],3.54
same,pKd,[6]; [28],below the threshold
same,pKd,[7]; [28],below the threshold
same,pKd,[8]; [28],below the threshold
same,pKd,[9]; [28],below the threshold
same,pKd,[10]; [28],below the threshold
same,pKd,[11]; [28],below the threshold
same,pKd,[12]; [28],below the threshold
same,pKd,[13]; [28],4.01
same,pKd,[14]; [28],below the threshold
same,pKd,[15]; [28],below the threshold
same,pKd,[16]; [28],below the threshold
same,pKd,[17]; [28],below the threshold
same,pKd,[18]; [28],below the threshold
same,pKd,[19]; [28],below the threshold
same,pKd,[20]; [28],below the threshold
same,pKd,[21]; [28],below the threshold
same,pKd,[22]; [28],below the threshold
same,pKd,[23]; [28],below the threshold
same,pKd,[24]; [28],below the threshold
same,pKd,[25]; [28],below the threshold
same,pKd,[26]; [28],below the threshold
same,pKd,[27]; [28],below the threshold
"RRVRKLPSTTL [RPS6KA1_-3P, Q15418]",pKd,[1]; [29],below the threshold
same,pKd,[2]; [29],3.56
same,pKd,[3]; [29],below the threshold
same,pKd,[4]; [29],below the threshold
same,pKd,[5]; [29],4.51
same,pKd,[6]; [29],below the threshold
same,pKd,[7]; [29],below the threshold
same,pKd,[8]; [29],below the threshold
same,pKd,[9]; [29],below the threshold
same,pKd,[10]; [29],3.6
same,pKd,[11]; [29],below the threshold
same,pKd,[12]; [29],below the threshold
same,pKd,[13]; [29],below the threshold
same,pKd,[14]; [29],below the threshold
same,pKd,[15]; [29],below the threshold
same,pKd,[16]; [29],below the threshold
same,pKd,[17]; [29],below the threshold
same,pKd,[18]; [29],4.34
same,pKd,[19]; [29],below the threshold
same,pKd,[20]; [29],below the threshold
same,pKd,[21]; [29],below the threshold
same,pKd,[22]; [29],3.94
same,pKd,[23]; [29],below the threshold
same,pKd,[24]; [29],below the threshold
same,pKd,[25]; [29],below the threshold
same,pKd,[26]; [29],below the threshold
same,pKd,[27]; [29],4.76
"DEDQHTQITKV [PTEN_Ac, P60484]",pKd,[1]; [30],below the threshold
same,pKd,[2]; [30],4.06
same,pKd,[3]; [30],below the threshold
same,pKd,[4]; [30],3.69
same,pKd,[5]; [30],4.2
same,pKd,[6]; [30],4.58
same,pKd,[7]; [30],below the threshold
same,pKd,[8]; [30],below the threshold
same,pKd,[9]; [30],below the threshold
same,pKd,[10]; [30],3.68
same,pKd,[11]; [30],3.67
same,pKd,[12]; [30],below the threshold
same,pKd,[13]; [30],4.56
same,pKd,[14]; [30],below the threshold
same,pKd,[15]; [30],3.87
same,pKd,[16]; [30],below the threshold
same,pKd,[17]; [30],below the threshold
same,pKd,[18]; [30],4.65
same,pKd,[19]; [30],below the threshold
same,pKd,[20]; [30],4.71
same,pKd,[21]; [30],below the threshold
same,pKd,[22]; [30],4.45
same,pKd,[23]; [30],4.18
same,pKd,[24]; [30],below the threshold
same,pKd,[25]; [30],below the threshold
same,pKd,[26]; [30],below the threshold
same,pKd,[27]; [30],3.78
"LETREPTNTL [GRIP1, Q9Y3R0]",pKd,[1]; [28],below the threshold
same,pKd,[2]; [28],below the threshold
same,pKd,[3]; [28],below the threshold
same,pKd,[4]; [28],below the threshold
same,pKd,[5]; [28],below the threshold
same,pKd,[6]; [28],below the threshold
same,pKd,[7]; [28],below the threshold
same,pKd,[8]; [28],below the threshold
same,pKd,[9]; [28],below the threshold
same,pKd,[10]; [28],below the threshold
same,pKd,[11]; [28],below the threshold
same,pKd,[12]; [28],below the threshold
same,pKd,[13]; [28],below the threshold
same,pKd,[14]; [28],below the threshold
same,pKd,[15]; [28],below the threshold
same,pKd,[16]; [28],below the threshold
same,pKd,[17]; [28],below the threshold
same,pKd,[18]; [28],below the threshold
same,pKd,[19]; [28],below the threshold
same,pKd,[20]; [28],below the threshold
same,pKd,[21]; [28],below the threshold
same,pKd,[22]; [28],below the threshold
same,pKd,[23]; [28],below the threshold
same,pKd,[24]; [28],below the threshold
same,pKd,[25]; [28],below the threshold
same,pKd,[26]; [28],below the threshold
same,pKd,[27]; [28],below the threshold
"TMQMSLKDLL [GLA, P06280]",pKd,[1]; [28],below the threshold
same,pKd,[2]; [28],3.51
same,pKd,[3]; [28],3.61
same,pKd,[4]; [28],below the threshold
same,pKd,[5]; [28],4.07
same,pKd,[6]; [28],below the threshold
same,pKd,[7]; [28],below the threshold
same,pKd,[8]; [28],below the threshold
same,pKd,[9]; [28],3.99
same,pKd,[10]; [28],below the threshold
same,pKd,[11]; [28],below the threshold
same,pKd,[12]; [28],below the threshold
same,pKd,[13]; [28],below the threshold
same,pKd,[14]; [28],3.58
same,pKd,[15]; [28],3.53
same,pKd,[16]; [28],below the threshold
same,pKd,[17]; [28],below the threshold
same,pKd,[18]; [28],3.79
same,pKd,[19]; [28],below the threshold
same,pKd,[20]; [28],below the threshold
same,pKd,[21]; [28],below the threshold
same,pKd,[22]; [28],3.5
same,pKd,[23]; [28],below the threshold
same,pKd,[24]; [28],3.56
same,pKd,[25]; [28],below the threshold
same,pKd,[26]; [28],below the threshold
same,pKd,[27]; [28],below the threshold
